Experimental data reported in patent publication US20250382376A1 (FUDAN UNIVERSITY, published 2025).

Key:
[1] = biological target: T1, CD73 on the surface of human cells (human, UniProt P21589 27-549); assay: Flow cytometry on MDA-MB-231 cells, PE-labelled secondary antibody [panel A]
T1 construct: whole, on cells; The cell line of each value is named under assay or readout; also called CD73 on the surface of tumor cells; CD73 enzyme on the surface of MDA-MB-231 cells
T1 sequence (looked up): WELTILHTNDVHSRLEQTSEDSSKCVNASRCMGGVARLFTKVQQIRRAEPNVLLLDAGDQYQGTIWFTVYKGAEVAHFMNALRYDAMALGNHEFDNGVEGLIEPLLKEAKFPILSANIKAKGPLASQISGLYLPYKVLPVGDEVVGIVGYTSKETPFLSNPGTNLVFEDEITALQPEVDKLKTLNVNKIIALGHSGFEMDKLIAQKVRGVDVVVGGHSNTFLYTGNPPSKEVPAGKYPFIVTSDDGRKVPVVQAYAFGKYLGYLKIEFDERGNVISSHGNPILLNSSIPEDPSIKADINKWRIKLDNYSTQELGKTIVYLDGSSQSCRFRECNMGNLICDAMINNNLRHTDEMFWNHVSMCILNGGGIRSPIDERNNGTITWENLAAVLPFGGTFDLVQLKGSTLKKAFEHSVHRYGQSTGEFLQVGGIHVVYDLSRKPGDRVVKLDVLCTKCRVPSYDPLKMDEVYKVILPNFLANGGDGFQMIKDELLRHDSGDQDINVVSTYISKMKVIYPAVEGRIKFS
Protocol: (§1) 100 μL of the test antibodies diluted from 10 μg/mL to 0.016 μg/mL in a 5-fold gradient were used as the primary antibodies, and were mixed with 1×10⁵ tumor cells suspended in 100 μL RPMI-1640 serum-free medium to make a final concentration of 5 μg/mL diluted to 0.008 μg/mL, and then incubated at 4° C. for 1 h. The cells were washed twice with PBS to remove unbound primary antibodies, and then the target cells were incubated with 200 μLPE-labeled secondary antibody at 2 μg/mL at 4° C. for 30 min. The cells were washed twice with PBS to remove unbound secondary antibodies, and finally the cells were resuspended in 200 μL PBS. The binding affinity of the test antibodies to CD73 on the surface of the corresponding cells was measured by flow cytometry.

[2] = biological target: T1, CD73 on the surface of human cells; assay: Flow cytometry on NCI-H1373 cells, PE-labelled secondary antibody [panel B]
Protocol: as §1

[3] = biological target: T1, CD73 on the surface of human cells; assay: flow cytometry on HCC44 cells
Protocol: as §1

[4] = biological target: T1, CD73 on the surface of human cells; assay: flow cytometry on MDA-MB-231 cells
Protocol: as §1

[5] = biological target: T1, CD73 on the surface of human cells; assay: flow cytometry on SW1573 cells
Protocol: as §1

[6] = biological target: T2, extracellular domain of human CD73 protein, C-terminus polyhistidine-tagged (human, UniProt P21589 27-547); assay: ForteBio OCTET R2 (the filing calls it SPR); antibody on Protein A sensor, CD73-ECD in solution; traces labelled 100, 50, 25, 12.5, 6.25
T2 construct: also the immunogen; also called CD73-ECD; human CD73-ECD
T2 sequence: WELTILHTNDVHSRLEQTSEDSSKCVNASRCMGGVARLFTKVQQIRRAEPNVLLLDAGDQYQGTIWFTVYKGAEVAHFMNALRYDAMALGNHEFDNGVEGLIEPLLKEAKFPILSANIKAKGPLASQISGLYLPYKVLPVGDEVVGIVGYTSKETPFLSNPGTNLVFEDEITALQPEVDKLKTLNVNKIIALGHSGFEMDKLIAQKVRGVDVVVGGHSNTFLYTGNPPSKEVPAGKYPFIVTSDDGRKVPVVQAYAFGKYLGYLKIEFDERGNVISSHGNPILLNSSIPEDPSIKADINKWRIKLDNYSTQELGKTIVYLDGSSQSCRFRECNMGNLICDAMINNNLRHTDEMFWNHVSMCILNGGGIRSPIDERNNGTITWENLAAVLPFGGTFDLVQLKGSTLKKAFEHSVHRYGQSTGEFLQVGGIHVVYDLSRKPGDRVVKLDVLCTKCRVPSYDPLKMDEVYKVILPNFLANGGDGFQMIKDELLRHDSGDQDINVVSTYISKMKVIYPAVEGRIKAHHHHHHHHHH
Protocol: Surface plasmon resonance (SPR) assay: Protein A sensor was used to immobilize the antibodies, with an immobilization height of about 1.5 nM. […] Affinity detection: equilibrium for 60 s, binding for 180 s, dissociation for 180 s, at a detection temperature of 25° C. Kinetic characterization analysis was performed using the ForteBio OCTET R2 system.

[7] = biological target: T1, CD73 on the surface of human cells; assay: cell-based or functional assay
[8] = biological target: T3, human recombinant CD73 enzyme (CD73 extracellular region) (human, UniProt P21589 27-549); assay: cell-based or functional assay
T3 sequence (looked up): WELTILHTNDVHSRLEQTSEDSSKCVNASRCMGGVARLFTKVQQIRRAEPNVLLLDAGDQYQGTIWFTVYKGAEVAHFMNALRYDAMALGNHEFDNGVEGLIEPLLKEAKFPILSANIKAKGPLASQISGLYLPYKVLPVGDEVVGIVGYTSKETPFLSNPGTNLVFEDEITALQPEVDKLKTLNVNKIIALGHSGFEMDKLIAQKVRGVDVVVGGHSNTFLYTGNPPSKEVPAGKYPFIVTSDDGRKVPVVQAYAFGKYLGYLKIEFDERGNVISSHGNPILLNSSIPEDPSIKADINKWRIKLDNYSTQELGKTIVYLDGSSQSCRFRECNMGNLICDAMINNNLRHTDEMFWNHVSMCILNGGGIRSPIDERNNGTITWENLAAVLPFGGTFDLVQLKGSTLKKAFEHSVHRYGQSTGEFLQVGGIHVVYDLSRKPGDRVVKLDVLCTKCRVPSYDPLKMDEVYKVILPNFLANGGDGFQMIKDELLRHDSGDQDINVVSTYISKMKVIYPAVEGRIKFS

[9] = biological target: T2, extracellular domain of human CD73 …; assay: ELISA on CD73-ECD, 0.8 µL supernatant of antibody expression, second of two readings; PBS 0.19, 0.18
Protocol: The CD73 protein extracellular region (CD73-ECD) was diluted to 1 μg/mL using the coating solution, and an ELISA plate was coated at 100 μL/well at 4° C. overnight. Excess antigens were washed away, and the plate was blocked with 1% BSA at room temperature for 2 hours. Then, 5-fold gradient dilutions of each monoclonal antibody were added at 100 μL/well and incubated at room temperature for 1 hour. Unbound antibodies were washed away, and an appropriate concentration of Staphylococcal protein A labeled with horseradish peroxidase was added at 100 μL/well and incubated at room temperature for 0.5 hours. Unbound secondary antibodies were washed away, and TMB color development solution was added to react for about 15 minutes. 1M HCL was added at 50 µL/well to terminate the color development reaction, and then the absorbance was measured at 450 nm and the data was analyzed.
CD73 antigen ELISA binding affinity test was performed according to the method of Example 3.

[10] = biological target: T2, extracellular domain of human CD73 …; assay: ELISA on CD73-ECD, 4 µL supernatant of antibody expression, second of two readings; PBS 0.19, 0.18

Row | Binder | Max MFI [1] | Max MFI [2] | EC50 [3] | EC50 [4] | EC50 [5] | koff [6] | kon [6] | EC50, reversal of the AMP inhibition of human T lymphocyte proliferation [7] | IC50, inhibition of AMP hydrolysis by CD73 on MDA-MB-231 cells [7] | IC50, inhibition of AMP hydrolysis by recombinant human CD73 enzyme (CellTiter-Glo) [8] | IC50, inhibition of the catalytic function of recombinant human CD73 enzyme [8] | ELISA reading (not named on the sheet) [9] | ELISA reading (not named on the sheet) [10]
1 | chimeric nanobody 3-D7 (Fc fusion, Human-alpaca chimeric antibody (VHH on hIgG1 Fc); Only the VHH is tied to the tested molecule; 37-39 exist for 3-D7-FC1/FC2/FC3; also called original antibody 3-D7) VHH: QRQLVESGGGLVQPGGSLRLSCAASGFLLDYYVIGWFRQAPGKEREGVSCISGSDRSTYYADSVKGRFTISRDNAKNTVYLQMNSLKPEDTAVYFCAADPSPVTVQAMCLPRFPVPYWGQGTQVTVST | 69600 MFI | 200000 MFI | 0.234 µg/mL | 0.12 µg/mL | 0.116 µg/mL | 0.000445 s⁻¹ | 223000 M⁻¹ s⁻¹ | 0.0247 µg/mL | 0.483 µg/mL | 0.0382 µg/mL | 0.0363 µg/mL |  | 
2 | chimeric nanobody 5-E11 (Fc fusion, Human-alpaca chimeric antibody (VHH on hIgG1 Fc); Only the VHH is tied to the tested molecule; also called original antibody 5-E11) VHH: ALQLVESGGGLVQPGGSLRLSCEVSGFTLDYYNIGWFRQAPGKEREGVSCSSNSGGSTYYADSVKGRFTISRDNAKNTVYLQMNSLKPEDTGVYYCAAYRGWHPSLDARVYDYWGQGTEVTVSS | 64500 MFI | 191000 MFI | 0.096 µg/mL | 0.037 µg/mL |  | 0.000318 s⁻¹ | 385000 M⁻¹ s⁻¹ | 0.0008 µg/mL | 0.088 µg/mL | 0.00947 µg/mL |  | 4.16 | 4.17
3 | chimeric nanobody 4-D04 (Fc fusion, Human-alpaca chimeric antibody) VHH: QLQLVESGGGLVQPGGSLRLSCAASGFTLDYYNIGWFRQAPGKEREGVSCISSSEGSTYYADSVKGRFTISRDNAKNTVYLQMNSLKPEDTAVYYCAADRYYYCSLHVSQYDYWGQGTLVTVSS | 79300 MFI | 220000 MFI | 0.114 µg/mL | 0.059 µg/mL | 0.067 µg/mL | 0.000277 s⁻¹ | 301000 M⁻¹ s⁻¹ | 0.0025 µg/mL | 0.093 µg/mL | 0.00563 µg/mL |  |  | 
4 | chimeric nanobody 4-B02 (Fc fusion, Human-alpaca chimeric antibody) VHH: EVQLVESGGGLVQPGGSLRLSCAASGFPLDYYSIGWFRQAPGKEREGVSCIGSSDGSTYYADSVKGRFTISRDNAENTVWLQMNSLKPEDTAVYYCAALKYYYCSGHEAIYDYWGQGTQVTVSG | 69500 MFI | 206000 MFI | 0.105 µg/mL | 0.037 µg/mL | 0.061 µg/mL | 0.000209 s⁻¹ | 263000 M⁻¹ s⁻¹ | 0.0012 µg/mL | 0.083 µg/mL | 0.00466 µg/mL |  |  | 
